Test results as given in the DeepSol protein solubility set.

test: soluble on expression in E. coli; label from the status in PepcDB or PDB records

| Sequence | soluble on expression in E. coli |
| --- | --- |
| MCAHEGKQYKNDTTFISQGSFRMKCVTFKNLTSTLEVISCITPAGVEISIGTQLEEGDKVFECTPGNVTLKSTPGQTGKCRGVYSVGDTWVEDSFRLLCEPYGKVNLKSCISKEGVEIPLGEARRVPAGYAMECVTVNGNVALQTAKTFDCETGTGEIKKFGDTWNEGNFVRRCANYGVSAIIGCYADGVGSIGLNQNMTSGDFLYMCINQNEQFKFRTLKAT | not soluble |
| MDIFYKKIKANVTPEVLAQLHSKKIILESTNQQQTKGRYSVVIFDIYGTLTLDNDVLSVSTLKESYQITERPYHYLTTKINEDYHNIQDEQLKSLPFISGYVGTCSFDLVRHEFPKLQSIQLEDHKQHDVRLYMVEQVYVFDHYKDELYIIATNQFSNSTKSDLENRVIKSIEDLTKIQPFMPTQDFDFKTKEIQSNISEERFIEMIQYFKEKITEGDMFQVVPSRIYKYAHHASQHLNQLSFQLYQNLKRQNPSPYMYYLNIDQPYIVGSSPESFVSVKDQIVTTNPIAGTIQRGETTQIDNENMKQLLNDPKECSEHRMLVDLGRNDIHRVSKIGTSKITKLMVIEKYEHVMHIVSEVTGKINQNLSPMTVIANLLPTGTVSGAPKLRAIERIYEQYPHKRGVYSGGVGYINCNHNLDFALAIRTMMIDEQYINVEAGCGVVYDSIPEKELNETKLKAKSLLEVSP | not soluble |
| IVGGRRARPHAWPFMVSLQLRGGHFCGATLIAPNFVMSAAHCVANVNVRAVRVVLGAHNLSRREPTRQVFAVQRIFENGYDPVNLLNDIVILQLNGSATINANVQVAQLPAQGRRLGNGVQCLAMGWGLLGRNRGIASVLQELNVTVVTSLCRRSNVCTLVRGRQAGVCFGDSGSPLVCNGLIHGIASFVRGGCASGLYPDAFAPVAQFVNWIDSIIQ | soluble |
| MQPFDSRQADEVATLLALAEHGSFAAAGRALQRHPSVLSKRLGALERRLGIRLVERTTRQLRFTDEGERLASRFRQAVDLLDEAEHEASLGAAQLRGRLRIALPSAMGRLWLGPLLAEFALAHPQVVLETDYSERFVDIIAEGFDLAIRVGELADSRLVARRLCAHRRILGAAPDYLKRHGVPRIPADLAAHNCLGFSGLHSYPEWKLTRQDEQQPVRVRGSMVSNDNEALLCAARQGLGIFAAGEWLMSRDLEAGRLVRVLPEWKLDADAGVYLVRPSARYATAAASAFRQWVEARFAAGPPWQRQRA | not soluble |
| MSMEPTLQSILDQRSLRWIFVGGKGGVGKTTTSCSLAIQLAKVRRSVLLLSTDPAHNLSDAFSQKFGKEARLVEGFDNLYAMEIDPNGSMQDLLAGQTGDGDAGMGGVGVMQDLAYAIPGIDEAMSFAEVLKQVNSLSYETIVFDTAPTGHTLRFLQFPTVLEKALAKVSQLSGQYGSLLNGILGGSGTLPNGQTLSDVMEKLDSLRVTISEVNAQFKDERLTTFVCVCIPEFLSLYETERMIQELANYGIDTHCIVVNQLLFPKPGSDCEQCTARRRMQKKYLDQIEELYDEEFNVVKMPLLVEEVRGKERLEKFSEMLIKPFVPPEHHHHHH | soluble |
| MIGKEEIHRIRELIGAKEGPVLSLYVDVNPAKPENAGRAYALRAKDAIKALEVPGDLSERVLEVLQNQVLEARTAVFFAGEDLFEVLPLQVELPLVNSVKTAFLDEKAGRYLVDGVLAHWGEPFLLPLVYALDEYERYGIVYVDRERWRVFEVFLGEIEEVHDAFLALDTEAWRRLSLDAPGRRFNLGGIARGGAGQDLFAKRLEAWEERFYKALAHELERLSEARGFTRLVLMGPEEHTKLFLGHLPKRLRERVVAELPSLPHPGASPGEVLKRLEPVLEEVERREEVKLLERLEEAYPKAAFGPEVLARVQEGRVEVWVLPWHLEQEVYLCQDFAFADEAQALAYCESPEKKPLAAVLASLAVGYATKLEFVRGEAENRLLERGGMAALLRW | soluble |
| MAHHHHHHMMKNTVRQFVKEITYLEVWEHFRRFGDAAGPDSVKCRLLCSDAVATQLNERIRMRYLLEQFLAQSSTTTSTGVAGEPRRWWEGDLTRCVDSDRRVLAETLLEDGWMLMQLNNCVSDREWLITTMTFQREKSTT | not soluble |
| PFSWMKFVVISRTDLEENGREILIHECAHIRKHHSWDLLIADICIFFQWFNPGAWLLKQELQNIHEYEADEAVINEGINARDYQLLLI | not soluble |
| MAHHHHHHMLSGITFEIFLFNFEIYHDFSSPLLFSLAIRIVIACGIPSMTNSSVQQVGCRVTYIWLSGKDSHHDIRSKDRTIYISPDDLEKDPKELLRLDMFPVWNFDGSSTGQAEGLITEIHIKPVNAYHCCIPRASSSVPWIVVLAECFLPTGEPTPDNSRAVARRIFDKGLGTHPWFGMEQEYFLVKDGHPYGWCPTCPPASQGPYYCATGSECIRGRKHVDLHYEVCLQMGLKICGTNAEVAFGQWEFQVGPCEGIEMGDQLVVARWVLLRILELEGLDADFRAKPILGDWNGSGLHTNFSTEATRAPGGLEVIYQYIERLKETSSKDIIFYGVDNNERLIGKHETSKLNETTFGIGTRGTSIRIPTAVAAAQSGYMEDRRPAAGADPYLVSSRLFASCLSVDAVELDFSSPRHEREWMASTSKV | not soluble |
| MVNRIQNPILPGFHPDPSIVRVGDDYYIATSTFEWFPGVRIHHSRDLKHWRFVSSPLTRTSQLDMKGNMNSGGIWAPCLSYHDGTFYLIYTDVKQWHGAFKDAHNYLVTAQNIEGPWSDPIYLNSSGFDPSLFHDDDGRKWLVNMIWDYRKGNHPFAGIILQEYSEAEQKLVGPVKNIYKGTDIQLTEGPHLYKKDGYYYLLVAEGGTEYEHAATLARSQSIDGPYETDPSYPLVTSTGQPELALQKAGHGSLVETQNGEWYLAHLCGRPLKGKYCTLGRETAIQKVNWTEDGWLRIEDGGNHPLREVTAPDLPEHPFEKEPELDDFDAPQLHHQWNTLRIPADPSWCSLEERPGHLRLRGMESLTSVHSQSLVARRQQSFHCEVETKLEYQPESFQHMAGLVIYYDTEDHVYLHVTWHEEKGKCLQIIQTKGGNYDELLASPIPLAEEKAVYLKGRIHRETMHLYFKQEGEAEWQPVGPTIDVTHMSDDSAKQVRFTGTFVGMATQDLSGTKKPADFDYFRYKELDQ | soluble |
| GKLVRRVLSINEVLGYNPDKGGISFIEAFSWDPVTDTHVFSAMGSSYILENKIATRLGIPGKKKKAIYDEIEKRAKILERLSDEGIVNYWEFFNTIAKITKSGMLRIQ | not soluble |
| STAIDGQGKDQVIFVTKEEHETPSTVKQEEEDTNEDPKGKGLILPTGEINWDCPCLGGMASGVCGEQFKSAFTCFHFSQEEVKGSDCLEQFISMQECFHQHPELFPQDNNDLQTADPDQEHSSSISDFTTNKESDSLPTETDEIPTQLPVVS | soluble |
| MIALGIEGTAWSLSIGVVDEEGVIALENDPYIPKEGGIHPREASQHHSERLPSLLSRVFEKVDKNSIDVVAFSQGPGMGPCLRVVATAARLLAIKLEKPLVGVNHCLAHVEVGRWQTGARKPVSLYVSGGNSQVIARRGNRYRVFGETLDIGIGNALDKLARHMGLKHPGGPKIEELAKKGQKYHFLPYVVKGMDFSFSGMVTAAQRLFDSGVRMEDVAFSFQETAFAMLTEVTERALAYLDLNEVLLVGGVAANKRLQEMLRIMCEDRGAKFYVPPKELAGDNGAMIAYTGLLMYKHGHQTPVEKSYVRPDFRIEDVEVNWD | soluble |
| MNALSGLQTHEDSTCCNRFCRPDERSASGNSTLLRFGGFFADQTYLQVTRLMQRIHYLHQRLVIDGFVRSEEDGGVFLAFGLEHHHHHH | not soluble |
| CLKEGGDSNSEKFIVGTNATYPPFEFVDKRGEVVGFDIDLAREISNKLGKTLDVREFSFDALILNLKQHRIDAVITGMSITPSRLKEILMIPYYGEEIKHLVLVFKGENKHPLPLTQYRSVAVQTGTYQEAYLQSLSEVHIRSFDSTLEVLMEVMHGKSPVAVLEPSIAQVVLKDFPALSTATIDLPEDQWVLGYGIGVASDRPALALKIEAAVQEIRKEGVLAELEQKWGLNNLEHHHHHH | soluble |
| IKVQIEKQLSERILLIDGGMGTMIQGYKFEEEDYRGERFNKWHCDLKGNNDLLVLSQPQIIRDIHEAYLEAGADILETNTFNATTIAMADYDMESLSEEINFEAAKLAREVADKWTEKTPNKPRYVAGVLGPTNRTCSISPDVNDPGFRNVSFDELVEAYSESTRALIRGGSDLILIETIFDTLNAKACSFAVESVFEELDITLPVMISGTITDASGRTLSGQTTEAFYNALRHVKPISFGLNCALGPDELREYVSDLSRISECYVSAHPNAGLPNAFGEYDLSPEDMAEHVAEWASSGFLNLIGGCCGTTPEHIRQMALVVEGVKPRQLPELPVACRLSGLEPLTIEKDSLFINVGERTNVTGSARF | not soluble |
| MSSHKEEPLEADVDQLTQYRERCADHVTEFKSILDECNDRVNSRSNTEETCHQEMADYVHHLDHCAMPKAFASLK | not soluble |
| EALLNDSALQSVPIVVPSRGSKLLGATLKTELTQEEVQQTLVDGFFPQVAITDHPVQRNRGALTQMGLPYAQDAGITRHIAAFLSKQAHAQSGGESAQAQDFNPFANMPGMPGSDAAQSADFIKPTAILFNGGVLKSKLLATRLEDTINKWLIEADAEMAKRLTGVDLDLAVASGAAYYGSVRRGQGVRIRGGIASAYYVGIESAMPAIPGMAPPMEALCVAPFGMEEGSSVDVPSQEFGLIIGQPVNFQFFGSTVRRDDLAGTHLDYWAPEELEELPEIQVTLPVSEGRREGEVVPVTLASRVTELGTLYLEAIAADNGQKWHVEFDVREDAKSDSNEEQ | not soluble |
| SLKAIKNGTILTGTGETIKQGTLLIQDGKVLEVGQRVDTPANAKLIDATGKYVTPGLIDVHTHIGVFSEGLGRTGHDFNETTAAATPYIRAIDGIYPFDQGFEDARQSGVTTVQIMPGSANVIGGEMVTVKTAGTVVDEMIVRAPSGMKAAFGENPKNVHGGKGKLPATRMGVAALFRQQLYQAQDYLKRFEKGELEKRDLGMEQLAKVLRKEIPLRVHAHRADDIATVLRMVDEFDLEATIEHCTEGHLIADHIAKYNVKVSVGPTMTSRTKQELVNKGWHTLIELEKHGIPFSITTDHPVVTINHLVTSAIQAVKAGLSEQSAFQAITLRAAEHIGVEQQVGSLEKGKDGDFVIWSDHPFTATAQVEATYINGKCVTGSHC | not soluble |
| MAHHHHHHMYNPALPNHYRGVVFAAYVRRRQREEAAAAQQQRQPNALASALSASSLAAPSMASVTAPLLGLSAEELHQHRIKESAALGIQRAVMMEKEALEVEHKKRKLEGSDARSRISSRLDKLKALAAKSKAVTGVSASLDAGDAILQAGGPSSPTSSQRTSSSSFDAEAAPSAPLVFQRSSLAAGGYVMAAADPSLPGMLLRTKTRSAVQGKPSSTLLLRFLHDSPVLGWKEAAIAEASTLSSAESSLCAPVLSQVQQLCRRFGFVRSMAAHVYAEDVVTAALARARSQTSAETQVPSAEAVRREQLRVWVRFDSVTEAFKAAESLAKEVSPATPAGRPVFAVAFYPTGLYDSGALELREEDLLSPSA | not soluble |
| MTGNAKLIDRVSAINWNRLQDEKDAEVWDRLTGNFWLPEKVPVSNDIPSWGTLTAGEKQLTMRVFTGLTMLDTIQGTVGAVSLIPDALTPHEEAVLTNIAFMESVHAKSYSQIFSTLCSTAEIDDAFRWSEENRNLQRKAEIVLQSYRGDEPLKRKVASTLLESFLFYSGFYLPMYWSSRAKLTNTADMIRLIIRDEAVHGYYIGYKFQRGLALVDDVTRAELKDYTYELLFELYDNEVEYTQDLYDEVGLTEDVKKFLRYNANKALMNLGYEALFPRDETDVNPAILSALSPNAD | soluble |
